# Test results from patent US20140087995A1 (published 2014).
# Numbered stars: 1 amine (or outer) side, 2 acyl side, 3 side chain; on linkers, the order of the positions; unused ones are H or OH. Bridge positions count the residues as written; N and C are the ends. Side chains are listed from the residue outwards. Ends that are not written are not given here. * marks the point of attachment. C20 diacid = O=C(O)CCCCCCCCCCCCCCCCCCC(=O)*; γGlu = O=C(O)[C@H](CCC(=O)[*:2])N[*:1]
# T1: rat amylin receptor (rat calcitonin receptor + rat RAMP 3) (rat, UniProt P32214 25-516; Q9JJ73 23-147)
# T1 construct: whole, on cells; Membranes of transiently transfected BHK tk'ts 13 cells (Assay VI); also called rAmylin-R; rat amylin 3(a) receptor
# T1 sequence (looked up) 1: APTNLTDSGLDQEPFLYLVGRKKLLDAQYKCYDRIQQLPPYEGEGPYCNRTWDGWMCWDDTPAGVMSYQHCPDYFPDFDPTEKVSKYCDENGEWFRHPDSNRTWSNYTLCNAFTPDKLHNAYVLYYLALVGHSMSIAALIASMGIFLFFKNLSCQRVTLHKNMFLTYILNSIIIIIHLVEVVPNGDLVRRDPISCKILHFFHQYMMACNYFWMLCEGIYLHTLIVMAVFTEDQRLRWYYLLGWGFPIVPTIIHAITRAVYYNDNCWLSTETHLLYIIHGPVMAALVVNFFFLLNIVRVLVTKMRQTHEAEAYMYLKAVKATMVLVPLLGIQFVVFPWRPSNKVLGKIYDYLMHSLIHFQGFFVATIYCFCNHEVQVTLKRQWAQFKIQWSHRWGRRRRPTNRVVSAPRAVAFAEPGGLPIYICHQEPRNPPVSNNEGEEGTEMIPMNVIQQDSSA
# T1 sequence (looked up) 2: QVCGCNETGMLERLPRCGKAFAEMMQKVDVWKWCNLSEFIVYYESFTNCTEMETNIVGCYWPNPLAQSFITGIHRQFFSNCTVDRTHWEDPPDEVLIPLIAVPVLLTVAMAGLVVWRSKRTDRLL
# T2: human calcitonin receptor (human, UniProt P30988 25-474)
# T2 construct: whole, on cells; Membranes of a stably transfected BHK cell line (Assay VII); also called hCTR; hCT
# T2 sequence (looked up): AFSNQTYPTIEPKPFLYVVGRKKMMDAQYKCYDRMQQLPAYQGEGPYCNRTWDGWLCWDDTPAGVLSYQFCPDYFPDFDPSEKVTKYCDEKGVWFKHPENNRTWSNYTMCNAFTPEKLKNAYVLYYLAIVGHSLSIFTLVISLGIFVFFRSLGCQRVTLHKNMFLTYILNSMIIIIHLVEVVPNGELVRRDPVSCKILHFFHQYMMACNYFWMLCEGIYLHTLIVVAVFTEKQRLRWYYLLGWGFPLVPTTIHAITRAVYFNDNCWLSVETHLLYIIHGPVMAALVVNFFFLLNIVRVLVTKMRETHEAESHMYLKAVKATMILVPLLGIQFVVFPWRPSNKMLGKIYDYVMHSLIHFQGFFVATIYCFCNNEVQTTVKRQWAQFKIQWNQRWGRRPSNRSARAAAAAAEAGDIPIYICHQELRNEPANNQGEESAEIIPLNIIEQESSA
# T3: rat calcitonin receptor (rat, UniProt P32214 25-516)
# T3 construct: whole, on cells; Membranes of transiently transfected BHK tk'ts 13 cells (Assay VIII); also called rCTR
# T3 sequence (looked up): T1 sequence (looked up) 1
# B1: N^ε1-[(4S)-4-carboxy-4-(19-carboxynonadecanoylamino)butanoyl]-[Glu14,Arg17,Pro21,Pro27,Pro34,Glu35]-h-amylin (peptide)
# peptide: K([γGlu-C20 diacid])CNTATCATQRLAEFLRHSSPNFGAIPSSTNVGPETY-NH2
# modifications: disulfide 2-7; N-terminus assumed
# SMILES: CC[C@H](C)[C@H](NC(=O)[C@H](C)NC(=O)CNC(=O)[C@H](Cc1ccccc1)NC(=O)[C@H](CC(N)=O)NC(=O)[C@@H]1CCCN1C(=O)[C@H](CO)NC(=O)[C@H](CO)NC(=O)[C@H](Cc1c[nH]cn1)NC(=O)[C@H](CCCNC(=N)N)NC(=O)[C@H](CC(C)C)NC(=O)[C@H](Cc1ccccc1)NC(=O)[C@H](CCC(=O)O)NC(=O)[C@H](C)NC(=O)[C@H](CC(C)C)NC(=O)[C@H](CCCNC(=N)N)NC(=O)[C@H](CCC(N)=O)NC(=O)[C@@H](NC(=O)[C@H](C)NC(=O)[C@@H]1CSSC[C@H](NC(=O)[C@@H](N)CCCCNC(=O)CC[C@H](NC(=O)CCCCCCCCCCCCCCCCCCC(=O)O)C(=O)O)C(=O)N[C@@H](CC(N)=O)C(=O)N[C@@H]([C@@H](C)O)C(=O)N[C@@H](C)C(=O)N[C@@H]([C@@H](C)O)C(=O)N1)[C@@H](C)O)C(=O)N1CCC[C@H]1C(=O)N[C@@H](CO)C(=O)N[C@@H](CO)C(=O)N[C@H](C(=O)N[C@@H](CC(N)=O)C(=O)N[C@H](C(=O)NCC(=O)N1CCC[C@H]1C(=O)N[C@@H](CCC(=O)O)C(=O)N[C@H](C(=O)N[C@@H](Cc1ccc(O)cc1)C(N)=O)[C@@H](C)O)C(C)C)[C@@H](C)O
# B2: N^ε1-[(4S)-4-carboxy-4-(19-carboxynonadecanoylamino)butanoyl]-[His14,Arg17,Pro21,Pro27,Pro31,Pro34]-h-amylin (peptide)
# peptide: K([γGlu-C20 diacid])CNTATCATQRLAHFLRHSSPNFGAIPSSTPVGPNTY-NH2
# modifications: disulfide 2-7; N-terminus assumed
# SMILES: CC[C@H](C)[C@H](NC(=O)[C@H](C)NC(=O)CNC(=O)[C@H](Cc1ccccc1)NC(=O)[C@H](CC(N)=O)NC(=O)[C@@H]1CCCN1C(=O)[C@H](CO)NC(=O)[C@H](CO)NC(=O)[C@H](Cc1c[nH]cn1)NC(=O)[C@H](CCCNC(=N)N)NC(=O)[C@H](CC(C)C)NC(=O)[C@H](Cc1ccccc1)NC(=O)[C@H](Cc1c[nH]cn1)NC(=O)[C@H](C)NC(=O)[C@H](CC(C)C)NC(=O)[C@H](CCCNC(=N)N)NC(=O)[C@H](CCC(N)=O)NC(=O)[C@@H](NC(=O)[C@H](C)NC(=O)[C@@H]1CSSC[C@H](NC(=O)[C@@H](N)CCCCNC(=O)CC[C@H](NC(=O)CCCCCCCCCCCCCCCCCCC(=O)O)C(=O)O)C(=O)N[C@@H](CC(N)=O)C(=O)N[C@@H]([C@@H](C)O)C(=O)N[C@@H](C)C(=O)N[C@@H]([C@@H](C)O)C(=O)N1)[C@@H](C)O)C(=O)N1CCC[C@H]1C(=O)N[C@@H](CO)C(=O)N[C@@H](CO)C(=O)N[C@H](C(=O)N1CCC[C@H]1C(=O)N[C@H](C(=O)NCC(=O)N1CCC[C@H]1C(=O)N[C@@H](CC(N)=O)C(=O)N[C@H](C(=O)N[C@@H](Cc1ccc(O)cc1)C(N)=O)[C@@H](C)O)C(C)C)[C@@H](C)O
# B3: N^ε1-[(4S)-4-carboxy-4-(19-carboxynonadecanoylamino)butanoyl]-[Glu14,Arg17,Pro21,Pro27,Pro34,Pro37]-h-amylin (peptide)
# peptide: K([γGlu-C20 diacid])CNTATCATQRLAEFLRHSSPNFGAIPSSTNVGPNTP-NH2
# modifications: disulfide 2-7; N-terminus assumed
# SMILES: CC[C@H](C)[C@H](NC(=O)[C@H](C)NC(=O)CNC(=O)[C@H](Cc1ccccc1)NC(=O)[C@H](CC(N)=O)NC(=O)[C@@H]1CCCN1C(=O)[C@H](CO)NC(=O)[C@H](CO)NC(=O)[C@H](Cc1c[nH]cn1)NC(=O)[C@H](CCCNC(=N)N)NC(=O)[C@H](CC(C)C)NC(=O)[C@H](Cc1ccccc1)NC(=O)[C@H](CCC(=O)O)NC(=O)[C@H](C)NC(=O)[C@H](CC(C)C)NC(=O)[C@H](CCCNC(=N)N)NC(=O)[C@H](CCC(N)=O)NC(=O)[C@@H](NC(=O)[C@H](C)NC(=O)[C@@H]1CSSC[C@H](NC(=O)[C@@H](N)CCCCNC(=O)CC[C@H](NC(=O)CCCCCCCCCCCCCCCCCCC(=O)O)C(=O)O)C(=O)N[C@@H](CC(N)=O)C(=O)N[C@@H]([C@@H](C)O)C(=O)N[C@@H](C)C(=O)N[C@@H]([C@@H](C)O)C(=O)N1)[C@@H](C)O)C(=O)N1CCC[C@H]1C(=O)N[C@@H](CO)C(=O)N[C@@H](CO)C(=O)N[C@H](C(=O)N[C@@H](CC(N)=O)C(=O)N[C@H](C(=O)NCC(=O)N1CCC[C@H]1C(=O)N[C@@H](CC(N)=O)C(=O)N[C@H](C(=O)N1CCC[C@H]1C(N)=O)[C@@H](C)O)C(C)C)[C@@H](C)O
# B4: N^ε1-[(4S)-4-carboxy-4-(19-carboxynonadecanoylamino)butanoyl]-[His14,Arg17,Pro21,Pro27,Arg34]-h-amylin (peptide)
# peptide: K([γGlu-C20 diacid])CNTATCATQRLAHFLRHSSPNFGAIPSSTNVGRNTY-NH2
# modifications: disulfide 2-7; N-terminus assumed
# SMILES: CC[C@H](C)[C@H](NC(=O)[C@H](C)NC(=O)CNC(=O)[C@H](Cc1ccccc1)NC(=O)[C@H](CC(N)=O)NC(=O)[C@@H]1CCCN1C(=O)[C@H](CO)NC(=O)[C@H](CO)NC(=O)[C@H](Cc1c[nH]cn1)NC(=O)[C@H](CCCNC(=N)N)NC(=O)[C@H](CC(C)C)NC(=O)[C@H](Cc1ccccc1)NC(=O)[C@H](Cc1c[nH]cn1)NC(=O)[C@H](C)NC(=O)[C@H](CC(C)C)NC(=O)[C@H](CCCNC(=N)N)NC(=O)[C@H](CCC(N)=O)NC(=O)[C@@H](NC(=O)[C@H](C)NC(=O)[C@@H]1CSSC[C@H](NC(=O)[C@@H](N)CCCCNC(=O)CC[C@H](NC(=O)CCCCCCCCCCCCCCCCCCC(=O)O)C(=O)O)C(=O)N[C@@H](CC(N)=O)C(=O)N[C@@H]([C@@H](C)O)C(=O)N[C@@H](C)C(=O)N[C@@H]([C@@H](C)O)C(=O)N1)[C@@H](C)O)C(=O)N1CCC[C@H]1C(=O)N[C@@H](CO)C(=O)N[C@@H](CO)C(=O)N[C@H](C(=O)N[C@@H](CC(N)=O)C(=O)N[C@H](C(=O)NCC(=O)N[C@@H](CCCNC(=N)N)C(=O)N[C@@H](CC(N)=O)C(=O)N[C@H](C(=O)N[C@@H](Cc1ccc(O)cc1)C(N)=O)[C@@H](C)O)C(C)C)[C@@H](C)O
# notes: also called compound 85
# Target: T1, rat amylin receptor (rat calcitonin …)
# Assay: SPA competition with 125I-rat amylin, membranes of BHK cells with rat calcitonin receptor + rat RAMP3 (Assay VI)
row,Binder,IC50 [nM]
1,B1,0.164
2,B2,0.125
3,B3,0.188
4,K([γGlu-C20 diacid])CNTATCATQRLAEFLRHSSPNFGAIPSSTNVGPHTY-NH2 (disulfide 2-7),0.104
5,B4,3.14

# Target: T2, human calcitonin receptor
# Assay: ratio IC50 human calcitonin receptor / IC50 human amylin receptor (reference)
# Summary of the method: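 Competition binding by SPA with cell membranes (35 ng/μL) and SPA beads in 50 mM Hepes pH 7.4 with 1 mM CaCl2, 5 mM MgCl2, 0.1% OA and 0.02% Tween20. Incubated 120 min at 25 °C with shaking, then counted.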
row,Binder,Ratio hCT/hAmylin binding
1,B1,13.3
2,B2,24.8
3,B3,0.5
4,K([γGlu-C20 diacid])CNTATCATQRLAEFLRHSSPNFGAIPSSTNVGPHTY-NH2 (disulfide 2-7),21.2
5,B4,91.8

# Target: T3, rat calcitonin receptor
# Assay: SPA competition with 125I-calcitonin, membranes of BHK cells with rat calcitonin receptor (Assay VIII)
row,Binder,IC50 [nM]
1,B1,10.4
2,B2,9.05
3,B3,0.206
4,K([γGlu-C20 diacid])CNTATCATQRLAEFLRHSSPNFGAIPSSTNVGPHTY-NH2 (disulfide 2-7),5.43
5,B4,146

# Target: T3, rat calcitonin receptor
# Assay: ratio IC50 rat calcitonin receptor / IC50 rat amylin receptor (reference)
row,Binder,Ratio rCT/rAmylin binding
1,B1,63.2
2,B2,72.4
3,B3,1.1
4,K([γGlu-C20 diacid])CNTATCATQRLAEFLRHSSPNFGAIPSSTNVGPHTY-NH2 (disulfide 2-7),52.2
5,B4,46.5
